In PMC11169542, “A probe for NIR-II imaging and multimodal analysis of early Alzheimer’s disease by targeting CTGF” (Nature Communications, 2024):
Ends that are not written are not given here.

What was measured:
[1] = target: T1, CTGF (Mus musculus, UniProt P29268); experiment: DGC fluorescence labelling of AD mouse brain sections in vitro; design: species or system APP/PS1 and wild-type C57BL/6J mice; conditions: 200 μM DGC 4 °C overnight
T1 construct: brain sections of the age-matched wild-type C57BL/6J mice were used as controls; from tissue; host or cells: brain of APP/PS1 transgenic and wild-type C57BL/6J mice (sections, living animal, perfused isolated brain)
T1 sequence (P29268 26-348): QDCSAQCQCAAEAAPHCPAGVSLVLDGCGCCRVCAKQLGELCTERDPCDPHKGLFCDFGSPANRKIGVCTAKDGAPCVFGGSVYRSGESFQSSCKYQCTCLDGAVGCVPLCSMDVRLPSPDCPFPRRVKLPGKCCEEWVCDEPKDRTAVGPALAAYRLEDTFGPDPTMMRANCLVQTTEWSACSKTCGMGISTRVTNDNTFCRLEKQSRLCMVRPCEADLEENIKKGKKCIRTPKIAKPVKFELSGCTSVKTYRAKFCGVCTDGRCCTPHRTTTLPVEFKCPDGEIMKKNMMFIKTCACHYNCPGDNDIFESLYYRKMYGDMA
Source text: To evaluate the expression of CTGF in the brain of AD mice and the efficacy of DGC in vitro, brain sections of APP/PS1 transgenic mice (derived from C57BL/6J) from 1-month to 9-month-old (1-, 2-, 3-, 6- and 9-month-old, female, n = 3) were used as AD model, and brain sections of the age-matched wild-type C57BL/6J mice were used as controls (female, n = 3). The brain sections were subjected to CTGF antibody immunofluorescence staining and DGC fluorescence imaging. The brains were collected and fixed with 4% PFA. The embedded brain was then sectioned using a microtome into 5-μm thick consecutive sections. The brain sections were immersed in Tris-EDTA buffer (pH = 9.0) at 95 °C for 15 min. The brain sections were then incubated with 3% bovine serum albumin for 1.5 h. Then, the brain sections were stained overnight at 4 °C with an anti-CTGF primary antibody (dilution 1:50, Abcam, Cat#ab6992). After restoring room temperature, they were washed with TBST (pH = 7.4, 3 × 5 min) and incubated with FITC-labeled Goat Anti-Rabbit IgG (h +L) (1: dilution 1:200, Bioss, Cat#bs-0370R-FITC) for 1 h. The brain sections were washed with TBST (pH = 7.4, 3 × 5 min). Finally, overnight staining with DGC (200 μM) at 4 °C and fluorescence imaging were obtained by the CLSM system.
Brain sections from female APP/PS1 double transgenic mice were used as AD models, and brain sections of the age-matched female wild-type C57BL/6J mice were used as controls to evaluate the availability of DGC in vitro. Three-month-old APP/PS1 mice (early-stage, unestablished Aβ plaques) and 9-month-old APP/PS1 mice (late-stage, established Aβ plaques) were chosen for comparison. All mice were purchased from Beijing HFK Bioscience Co., Ltd and handled in accordance with the Ethics Committee of Beijing University of Technology, China. To avoid the interference of strong background fluorescence signals of blood in cerebral microvessels, the blood vessels were emptied by cardiac perfusion with saline and PFA before dissociating the brain. After the completion of perfusion, the brain was collected and fixed with PFA for a longer time ex vivo. The embedded brain was then sectioned using a microtome into 5-μm thick continuous sections. The brain sections were labeled with DGC or CTGF, GFAP, and Aβ antibodies. Deparaffinization was performed first and antigen retrieval was implemented with immersion of the brain sections into Tris-EDTA buffer (pH = 9.0) at 95 °C for 15 min. Then, the brain sections were incubated with 3% bovine serum albumin for 1.5 h.
For fluorescence imaging of CTGF, the brain sections were stained with anti-CTGF primary antibody (dilution 1:50, Abcam, Cat#ab6992), anti-glial fibrillary acidic protein (GFAP) primary antibody (diluted 1:400, Proteintech, Cat#16825-1-AP) or anti-Aβ 17-24 (4G8, diluted 1:1000, BioLegend, Cat#SIG-39200) at 4 °C for 4 h. After they were washed by TBST (pH = 7.4, 3 × 5 min) at room temperature, the brain sections were incubated with the secondary antibody (FITC-labeled Goat Anti-Rabbit IgG (H + L) (1: dilution 1:200, Bioss, Cat#bs-0370R-FITC) for 1 h. After the brain sections were washed by TBST (pH = 7.4, 3 × 5 min). Finally, the brain sections were co-stained by DGC (200 μM) at 4 °C overnight, and the staining results were acquired on the CLSM system.

[2] = target: T2, CTGF (Homo sapiens, UniProt P29279); experiment: Affinity between DGC/DAG and CTGF protein by SPR (BIAcore); type: binding; design: purchased Abcam ab283457; conditions: ratio of SPR KD values
T2 sequence (P29279 27-349): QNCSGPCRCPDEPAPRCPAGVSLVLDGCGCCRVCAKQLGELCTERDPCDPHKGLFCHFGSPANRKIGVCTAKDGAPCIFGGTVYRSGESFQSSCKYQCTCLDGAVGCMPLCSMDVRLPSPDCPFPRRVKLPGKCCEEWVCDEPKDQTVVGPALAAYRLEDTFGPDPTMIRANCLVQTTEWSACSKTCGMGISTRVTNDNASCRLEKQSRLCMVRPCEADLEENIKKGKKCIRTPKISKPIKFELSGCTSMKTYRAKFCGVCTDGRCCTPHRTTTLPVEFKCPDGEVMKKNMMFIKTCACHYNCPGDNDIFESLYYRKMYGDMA
Experimental: Real-time binding and kinetic analyses by surface plasmon resonance (SPR) were performed on a BIAcore 8 K^+ instrument (Pharmacia Biosensor AB). The recombinant Human CTGF protein (Abcam, Cat#ab283457) was immobilized on a CM5 chip by using an amine coupling kit, and the remaining coupling sites were blocked with ethanolamine. The eluent contained PBS and 0.005% Tween 20. Binding was evaluated over a range of DAG (0.5–16 μM) or DGC (0.01– 0.16 μM) concentrations at 25 °C. Kinetic parameters were further determined with Biacore Insight Evaluation 3.0 software.

FL intensity of DGC on brain section ([1]; 3-month-old APP/PS1 mouse brain section, section 1): 0.02124
FL intensity of DGC on brain section ([1]; 3-month-old APP/PS1 mouse brain section, section 2): 0.02275
FL intensity of DGC on brain section ([1]; 3-month-old APP/PS1 mouse brain section, section 3): 0.01511
FL intensity of DGC on brain section ([1]; 9-month-old APP/PS1 mouse brain section, section 1): 0.0369
FL intensity of DGC on brain section ([1]; 9-month-old APP/PS1 mouse brain section, section 2): 0.0329
FL intensity of DGC on brain section ([1]; 9-month-old APP/PS1 mouse brain section, section 3): 0.0406
FL intensity of DGC on brain section ([1]; WT mouse brain section, section 1): 0.00435
FL intensity of DGC on brain section ([1]; WT mouse brain section, section 2): 0.0071
FL intensity of DGC on brain section ([1]; WT mouse brain section, section 3): 0.0055
binding affinity of DGC to CTGF relative to free DAG peptide [2]: more than 1000 times
Substance: DGC: CTGF-targeting peptide-coated gold nanocluster: one Au26 gold nanocluster coated by eight DAG cyclic peptides, NIR-II and red fluorescence (CDAGRKQKC; also: cyclic peptide, ring not given here, eight peptides on one Au26 nanocluster via Cys Au-S bonds)
